Target: T1, human CD40-Fc protein (amino acid residue 21-193 of SEQ ID NO: 67 linked to N-terminus of amino acid residue … (human, biotin-labeled in the capture ELISA and in the benchmark blocking ELISA; unlabeled when coated in the ligand blocking ELISA)
T1 construct: also called biotin-labeled human CD40-Fc; human CD40-Fc-biotin
Experiment: capture ELISA (antibody captured on coated anti-IgG F(ab')2, biotin-labeled human CD40-Fc in solution, streptavidin-HRP, OD(450-630))
Method: Plates were washed 4 times with wash buffer (PBS+0.05% Tween-20, PBST) and then blocked with 200 μl/well blocking buffer (5% w/v non-fatty milk in PBST) for 2 hours at 37° C. […] After a final wash, plates were incubated with 100 μl/well ELISA substrate TMB (Innoreagents, Cat # TMB-S-002). The reaction was stopped in 15 minutes at 25° C. with 50 μl/well 1M H₂SO₄, and the absorbance was read at 450 nm and plotted against antibody concentration. Data were analyzed using Graphpad Prism software and EC₅₀ values were reported.

T1 sequence (chain, as listed by the source): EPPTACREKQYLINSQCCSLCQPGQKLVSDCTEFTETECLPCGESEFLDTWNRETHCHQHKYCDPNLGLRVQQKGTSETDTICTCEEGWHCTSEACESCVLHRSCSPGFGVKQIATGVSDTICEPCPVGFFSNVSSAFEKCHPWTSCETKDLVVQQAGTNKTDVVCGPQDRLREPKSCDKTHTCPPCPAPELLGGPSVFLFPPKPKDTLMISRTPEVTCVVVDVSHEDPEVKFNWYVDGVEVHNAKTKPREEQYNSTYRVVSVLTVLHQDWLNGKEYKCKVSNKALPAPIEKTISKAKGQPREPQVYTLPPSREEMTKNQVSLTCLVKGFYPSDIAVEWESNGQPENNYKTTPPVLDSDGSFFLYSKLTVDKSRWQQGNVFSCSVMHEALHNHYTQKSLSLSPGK

B1: mouse anti-CD40 monoclonal antibody C1C1 (antibody, V domains shown)
VH: EVKLVESGGGLVKPGASLKLSCAASGFTFSNYGMSWVRQNSDKRLEWVASISSGGDDTYYPDNVKGRCTISRENAKNTLYLEMSSLKTEDTALYYCTRAGGKAMDYWGQGTSVTVST
VL: DIVLTQSPATLSVIPGNSVSLSCRASQSIRDNLHWYQQKSHESPRLLINYASQSISGIPSRFSGSGSGTDFTLTINSVETEDFGIYFCQQFNSWPLTFGGGTKLELK
notes: those are used here for the chimeric antibody only; also called Mouse C1C1; mouse C1C1
EC50 (read off the curve): ~0.2 nM
